{"source": "patent US20240342244A1", "about": "“Isthmin Protein Therapeutics for the Treatment of Non-Alcoholic Fatty Liver Disease” (The Board of Trustees of the Leland Stanford Junior …, priority 2021, published 2024)", "molecules": {"B1": {"name": "ISM1: recombinant mouse ISM1 protein with a C-terminal myc-his tag generated in mammalian HEK 293 Expi cells (protein, UniProt A2ATD1 30-454, looked up)", "Isthmin-1": "SDRQDAAAGNNNLNLESDSTSETSFPLSKEAPEEHQVVHQPFPRQRFPPETGHPSLQRDGPRSFLLDLPNFPDLSKADINGQNPNIQVTIEVVDGPDSEAEKDQHPENKPSWSLPAPDWRAWWQRSLSLARTNSGDQDDKYDSTSDDSNFLSVPRGWDRPAPGHRTFETKEQPEYDSTDGEGDWSLWSVCSVTCGNGNQKRTRSCGYACIATESRTCDRPNCPGIEDTFRTAATEVSLLAGSEEFNATKLFEVDMDSCERWMSCKSEFLKKYMHKVINDLPSCPCSYPTEVAYSTADIFDRIKRKDFRWKDASGPKEKLEIYKPTARYCIRSMLSLESTTLAAQHCCYGDNMQLITRGKGAGTPNLISTEFSAELHYKVDVLPWIICKGDWSRYNEARPPNNGQKCTESPSDEDYIKQFQEAREY", "modifications": "C-terminal myc-His tag", "notes": "recombinant mouse ISM1 protein with a C-terminal myc-his tag generated in mammalian HEK 293 Expi cells"}}, "key": {"SREBP1c, FAS, ACC": {"system": "SREBP1c, FAS, ACC", "test": "Lipogenic protein and gene expression in AML12 hepatocytes", "type": "cell-based, mouse", "procedure": "Gene expression analysis. Total RNA from cultured cells or tissues was isolated using TRIzol (Thermo Fischer Scientific) and Rneasy mini kits (QIAGEN). RNA was reverse transcribed using the ABI high capacity cDNA synthesis kit. For qRT-PCR analysis, cDNA, primers and SYBR-green fluorescent dye (ABI) were used. Relative mRNA expression was determined by normalization with Cyclophilin levels using the ΔΔCt method.\n(§1) Western blots and molecular analyses. For western blotting, homogenized tissues or whole-cell lysates, samples were lysed in RIPA buffer containing protease inhibitor cocktail (Roche) and phosphatase inhibitor cocktail (Roche). Cell lysates were centrifuged at 14,000×g for 15 min and supernatants were prepared in 4×LDS Sample Buffer (Invitrogen) and separated by SDS-PAGE and transferred to Immobilon 0.45 μm membranes (Millipore). For Western blotting of plasma samples, 1 μl of plasma was prepared in 2× sample buffer (Invitrogen) with reducing agent, boiled, and analyzed using Western blot against indicated antibody. Protein kinase array (R&D systems ARY003B) was performed according to the manufacturers' description. All antibodies used in this paper are described in STAR methods."}, "pTyr": {"system": "pTyr", "test": "Western blot of pTyr levels", "type": "cell-based", "details": "100 nM; 2 minutes", "procedure": "as §1"}, "primary mouse adipocytes": {"system": "primary mouse adipocytes", "test": "2-deoxy-3H-glucose uptake in primary mouse adipocytes", "type": "cell-based", "procedure": "Mouse and human pre-adipocytes culture and differentiation. Inguinal fat pads from 4-8 week old C57BL/6J male and female mice were dissected and mechanically digested for 10 min using spring scissors. Digested tissues were incubated in WAT isolation buffer (10 ml PBS, 2.4 U/ml dispase II (#04942078001, Roche), 10 mg/ml collagenase D (#11088858001, Roche) at 37° C. for 45 min. 20 mL growth media was added and the tissue suspension was filtered through a 100-μm cell strainer and centrifuged at 600×g for 5 min. The cell pellets were resuspended in 20 mL growth media, filtered through a 40-μm cell strainer, centrifuged at 600×g for 5 min, resuspended in 10 mL growth media, and plated in 10-cm collagen-coated dishes. The cells were cultured in growth media (DMEM/F-12 Glutamax, Thermo Fisher Scientific #10565018) supplemented with 10% fetal bovine serum. Two days post-confluency, differentiation was induced with growth media containing 1 μM rosiglitazone, 0.5 mM isobutylmethylxanthine, 1 μM dexamethasone, 5 μg/mL insulin. After two days, cells were re-fed with growth media containing 1 μM rosiglitazone and 5 μg/mL insulin. Cells were fully differentiated after 6-8 days. For ISM1 knockdown or overexpression in primary adipocytes using adenovirus, 500 μL crude virus was mixed with 500 μL fresh growth media containing 1 μM rosiglitazone and 5 μg/mL insulin was added to each well at day 2 of differentiation. At day 4, virus-containing media was removed and 500 μL fresh growth media without stimulators was added to each well. SGBS cells were differentiated as described previously (Fischer-Posovszky et al., 2008; Wabitsch et al., 2001). Briefly, cells were cultured in growth media DMEM/F-12 Glutamax, supplemented with 10% fetal bovine serum, 33 uM biotin, and 17 uM pantothenate. Two days post confluency, differentiation was induced with serum-free DMEM/F12 media containing 33 uM biotin, 17 uM pantothenate, 0.01 mg/ml transferrin, 20 nM insulin, 100 nM cortisol, 0.2 nM triiodothyronine, 25 nM dexamethasone, 0.25 mM isobutyl methylxanthine, and 2 μM rosiglitazone. After four days, cells were re-fed with growth media containing 0.01 mg/ml transferrin 20 nM insulin, 100 nM cortisol, 0.2 nM triiodothyronine. Cells were fully differentiated after day 8-10.\n(§2) Glucose uptake. Glucose uptake was performed as previously described (You et al., 2017). Briefly, 2-Deoxy-d-[2,6-3H]-glucose was purchased from PerkinElmer NEN radiochemicals. Fully differentiated adipocytes were washed with KRH buffer and starved in 0.5% BSA in KRH buffer for 4 h. Indicated concentrations of insulin or ISM1 were added at indicated time points. Cells were treated with a mixture of 500 μM 2-deoxy-D-glucose and 1.71 μCimL^−1 2-Deoxy-D-[1,2-3H (N)]-glucose for another 10 min followed by three washes using ice cold KRH buffer containing 200 mM glucose. The passive glucose uptake in the presence of 50 uM CytoB was less than 12% of the total glucose uptake. Cells were solubilized in 1% SDS and radioactivity was measured by liquid scintillation counting."}, "pAKT^S473 [1]": {"system": "pAKT^S473", "test": "pAKT S473 western blot in primary mouse adipocytes", "type": "cell-based", "procedure": "Mouse and human pre-adipocytes culture and differentiation. Inguinal fat pads from 4-8 week old C57BL/6J male and female mice were dissected and mechanically digested for 10 min using spring scissors. Digested tissues were incubated in WAT isolation buffer (10 ml PBS, 2.4 U/ml dispase II (#04942078001, Roche), 10 mg/ml collagenase D (#11088858001, Roche) at 37° C. for 45 min. 20 mL growth media was added and the tissue suspension was filtered through a 100-μm cell strainer and centrifuged at 600×g for 5 min. The cell pellets were resuspended in 20 mL growth media, filtered through a 40-μm cell strainer, centrifuged at 600×g for 5 min, resuspended in 10 mL growth media, and plated in 10-cm collagen-coated dishes. The cells were cultured in growth media (DMEM/F-12 Glutamax, Thermo Fisher Scientific #10565018) supplemented with 10% fetal bovine serum. Two days post-confluency, differentiation was induced with growth media containing 1 μM rosiglitazone, 0.5 mM isobutylmethylxanthine, 1 μM dexamethasone, 5 μg/mL insulin. After two days, cells were re-fed with growth media containing 1 μM rosiglitazone and 5 μg/mL insulin. […]\nWestern blots and molecular analyses. […] For Western blotting of plasma samples, 1 μl of plasma was prepared in 2× sample buffer (Invitrogen) with reducing agent, boiled, and analyzed using Western blot against indicated antibody. […]"}, "pAKTS473": {"system": "pAKTS473", "test": "In vivo pAKT S473 signaling in tissues after I.V. injection in DIO mice", "set-up": "species or system mouse", "procedure": "as §1"}, "[2]": {"system": "differentiated 3T3-L1 adipocytes", "test": "2-deoxy-3H-glucose uptake in differentiated 3T3-L1 adipocytes", "type": "cell-based", "details": "1 h", "procedure": "as §2"}, "pAKT^S473 [3]": {"system": "pAKT^S473", "test": "pAKT S473 western blot in C2C12 skeletal muscle cells", "type": "cell-based", "details": "100 nM, 5 min", "procedure": "as §1"}, "ISM1-KO mice": {"system": "ISM1-KO mice", "test": "In vivo 2-deoxy-3H-glucose uptake in ISM1-KO mice treated with ISM1 protein", "set-up": "species or system mouse", "details": "5 mg/kg ISM1 protein for two days; male ISM1-KO mice", "procedure": "In vivo glucose uptake. Mice were fasted for 1 h and injected I.P. with 3H-2-deoxyglucose (3H-2-DOG) at 100 uCi/kg with or without 0.75 U/kg insulin in a total volume of 120 ul per mouse. After 30 min, mice were euthanized. Blood was collected by cardiac puncture and subsequently centrifuged to collect serum. Wet tissue weights were recorded then homogenized in 1% SDS for liquid scintillation counting. Data are expressed as CPM/mg wet weight (fold change over control)."}}}
{"molecule": "B1", "values": [{"measurement": "SREBP1c cleavage, FAS and ACC protein expression", "setting": "SREBP1c, FAS, ACC; 50 nM insulin, with or without ISM1, 24 h", "value": "counteracts the insulin-induced increase in SREBP1c cleavage to the mature form"}, {"measurement": "ChREBPβ and PGC1β gene expression", "setting": "SREBP1c, FAS, ACC; AML12 hepatocytes", "value": "reduced"}, {"measurement": "fas, acc and scd1 gene expression", "setting": "SREBP1c, FAS, ACC; in the presence of insulin, 6 h", "value": "significantly reduced"}, {"measurement": "tyrosine phosphorylation of proteins", "setting": "pTyr", "value": "induces phosphorylation of tyrosine residues on proteins >100 kDa in size"}, {"measurement": "glucose uptake when added to insulin", "setting": "primary mouse adipocytes; 100 nM ISM1 in cells treated with 50 nM insulin, 1 h", "value": "further increased insulin-induced uptake"}, {"measurement": "increase in glucose uptake", "setting": "primary mouse adipocytes; 100 nM, absence of insulin, across multiple experiments", "value": "around 1.5 fold"}, {"measurement": "desensitization of glucose uptake on prolonged treatment", "setting": "primary mouse adipocytes; 24 h vs 4 h protein treatment, 100 nM", "value": "does not lead to desensitization"}, {"measurement": "effect on glucose uptake relative to that of insulin", "setting": "primary mouse adipocytes; primary mouse adipocytes", "value": "< 50", "unit": "%"}, {"measurement": "pAKT^S473 induction", "setting": "pAKT^S473 [1]; differentiated primary mouse brown adipocytes", "value": "induced pAKT^S473"}, {"measurement": "pAKT^S473 induction", "setting": "pAKT^S473 [1]; white adipocytes", "value": "induced pAKT^S473"}, {"measurement": "pAKTS473 signaling in BAT and liver", "setting": "pAKTS473; 10 mg/kg I.V., 10 min time point", "value": "transient inductions"}, {"measurement": "pAKTS473 signaling in iWAT and skeletal muscle", "setting": "pAKTS473; 10 mg/kg I.V., DIO mice", "value": "activates pAKTS473 signaling at 30 and 60 min"}, {"measurement": "dose inducing the highest pAKTS473 response", "setting": "pAKTS473; doses ranging from 0.1 mg/kg to 10 mg/kg, iWAT", "value": 5, "unit": "mg/kg"}, {"measurement": "induction of glucose uptake", "setting": "[2]", "value": "does not induce glucose uptake"}, {"measurement": "pAKT^S473 induction", "setting": "pAKT^S473 [3]", "value": "induced pAKT^S473"}, {"measurement": "glucose uptake in BAT", "setting": "ISM1-KO mice", "value": "increase glucose uptake"}, {"measurement": "glucose uptake in iWAT", "setting": "ISM1-KO mice", "value": "trending increase"}, {"measurement": "glucose uptake in liver", "setting": "ISM1-KO mice", "value": "no hepatic glucose uptake induction"}, {"measurement": "glucose uptake in skeletal muscle", "setting": "ISM1-KO mice", "value": "increase glucose uptake"}]}
